Assay results reported in publication PMC12609908.
Where a chain is given by its changes, count along the chain named.

Experiments:
Assay in all cases: EMSA
Details in all cases: 50 mM Tris-HCl pH 8.0, 100 mM NaCl, 40% glycerol, 5 mM DTT, 2 mM EDTA, 4 °C 1 h; 10% native PAGE in 0.5x TBE at 4 °C
[1] = target: T1, CutR R19A R19A (Mycobacterium sp. strain JC1) (UniProt D5G1X9)
T1 sequence: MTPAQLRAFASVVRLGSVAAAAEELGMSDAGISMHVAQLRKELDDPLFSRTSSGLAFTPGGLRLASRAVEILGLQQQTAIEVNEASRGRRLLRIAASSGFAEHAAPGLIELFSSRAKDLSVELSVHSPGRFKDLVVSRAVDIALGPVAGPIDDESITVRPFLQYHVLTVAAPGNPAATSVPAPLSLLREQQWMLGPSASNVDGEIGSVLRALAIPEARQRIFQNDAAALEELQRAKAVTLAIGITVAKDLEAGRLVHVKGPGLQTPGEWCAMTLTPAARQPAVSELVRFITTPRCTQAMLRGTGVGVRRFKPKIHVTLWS

[2] = target: T2, CutR Q5A Q5A (Mycobacterium sp. strain JC1) (UniProt D5G1X9)
T2 sequence: T1 sequence with Q5A, A19R

[3] = target: T3, CutR R40A R40A (Mycobacterium sp. strain JC1) (UniProt D5G1X9)
T3 sequence: T1 sequence with A19R, R40A

[4] = target: T4, CutR Q38A Q38A (Mycobacterium sp. strain JC1) (UniProt D5G1X9)
T4 sequence: T1 sequence with A19R, Q38A

[5] = target: T5, CutR R7A R7A (Mycobacterium sp. strain JC1) (UniProt D5G1X9)
T5 sequence: T1 sequence with R7A, A19R

## ACCCCGAGTTAAGTGATTCCTTAACTCGCTATTGACGCCATCGCGGCGGCAACGGAAACTAGCCACTTCAGCCACGACGTTGTGAGGATGATCACATGCAA (double strand) [IR1 to CRP motif fragment (101 bp)]
[1]
  binding: binds
[2]
  binding: binds
[3]
  binding: no binding
[4]
  binding: binds
[5]
  binding: binds
